Laboratory results as given in US20220119492A1 (MEDIKINE, published 2022).
Bridge positions count the residues as written; N and C are the ends. Ends that are not written are not given here.

T1: human IL-2Rβ (CD122 protein, Fc Tag) (27-239) (human, UniProt P14784 27-239)
T1 construct: range 27-239; Bought protein; also called hu-IL-2Rβ subunit; IL-2Rβ subunit; not shown: Fc tag of the bought protein
T1 sequence (looked up): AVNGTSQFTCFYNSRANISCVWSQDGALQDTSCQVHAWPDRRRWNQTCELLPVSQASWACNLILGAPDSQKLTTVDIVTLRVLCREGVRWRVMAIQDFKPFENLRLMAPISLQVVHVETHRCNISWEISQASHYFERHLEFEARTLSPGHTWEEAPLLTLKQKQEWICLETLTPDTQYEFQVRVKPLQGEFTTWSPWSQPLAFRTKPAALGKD


These binders were tested against T1, human IL-2Rβ (CD122 protein, Fc Tag) … (assay: phage ELISA competition).
Procedure, shortened: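 IC50 comes from absorbance measured across a dilution series of ligand in a competitive binding ELISA against human IL-2Rβ-Fc, with a phage tracer as the competitor. The phage tracer (50 μL) was added with no wash step for 45 min at 4° C. Detection of bound phage used TMB for 1 to 15 min at 25° C, then stop solution and a reading at 450 nm.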

Row | Binder | IC50 [µM]
1 | EQGMLGYFPCWKALLGDVCDLD [SEQ ID NO 2602] | < 100
2 | YKPCWIAQLGELCELE [SEQ ID NO 2585] | < 100
3 | WLPCWMAKLGDLCELE [SEQ ID NO 2588] | < 100
4 | SNPCWMAQLWELCDLE [SEQ ID NO 2584] | < 100
5 | LHPCWMAQLGELCDLE [SEQ ID NO 2590] | < 100
6 | WYPCHMAKLRELCDLD [SEQ ID NO 2582] | < 100
7 | WQPCWRAKLGELCDLE (disulfide 4-13 (inferred)) [SEQ ID NO 2594] | < 100
8 | WRVTASLQPCWMAQLGELCDLN [SEQ ID NO 2603] | < 100
9 | ALVGGTFYPCYVAHLGELCDIE [SEQ ID NO 2606] | < 100
10 | TVGQFEWYPCSTAQLGELCDLD [SEQ ID NO 2605] | < 100
11 | WQPCWMAQLGELCDLE [SEQ ID NO 2586] | < 100
12 | WWPCSSAELGEICDFD [SEQ ID NO 2593] | < 100
13 | DTGRDGWKPCWMALLGELCELE (disulfide 10-19 (inferred)) [SEQ ID NO 2601] | < 100
14 | VRAWYPCWIARLGELCDLEVD (disulfide 7-16 (inferred)) [SEQ ID NO 2580] | < 100
15 | WKPCWLAQLGDLCEME [SEQ ID NO 2587] | < 100
16 | GAGVLHRWPCWMAKLGDLCDLD [SEQ ID NO 2600] | < 100
17 | SLPCWMAQLGELCDLV [SEQ ID NO 2591] | < 100
18 | WSPCWIATLGELCDLD [SEQ ID NO 2595] | < 100
19 | WFPCWMAQLGEVCDLD [SEQ ID NO 2581] | < 100
20 | SLPCWMAQLGDLCELH (disulfide 4-13 (inferred)) [SEQ ID NO 2583] | < 100
21 | WDVHAIRNPCWLAKLGDLCDLD [SEQ ID NO 2599] | < 100
22 | GQVVETSLPCWEAQLGELCVLD [SEQ ID NO 2604] | < 100
23 | WLPCWMAQLGELCVME [SEQ ID NO 2589] | < 100
24 | WKPCWMAGLGELCELD [SEQ ID NO 2592] | < 100
25 | WLSPPSYLPCWMAQLGELCDLV [SEQ ID NO 2598] | < 100
26 | WNPCWIAQLGDLCDMV [SEQ ID NO 2596] | < 100
27 | WLPCWLAHLGDICDLQ [SEQ ID NO 2597] | < 100

Further lines, results first:

Row | IC50 [µM] | Binder
28 | < 100 | AYRIYPCWKAQLGELCDLDNAD [SEQ ID NO 2641]
29 | < 100 | FFPCWMGQLGDLCDLEVRSMQK [SEQ ID NO 2632]
30 | < 100 | WKPCWIADLGELCDLAPAWHEY [SEQ ID NO 2618]
31 | < 100 | YRRERVEFPCWLAQLGELCDKE [SEQ ID NO 2608]
32 | < 100 | IPKGESWFPCWMAAMGELCDLE [SEQ ID NO 2610]
33 | < 100 | YVPCYMARLGELCELEANRPGQ [SEQ ID NO 2625]
34 | < 100 | SKPCWMAQLGELCDLDVWNLQM [SEQ ID NO 2620]
35 | < 100 | WYPCYMASLGELCDLQSSISPR [SEQ ID NO 2634]
36 | < 100 | YWPCSMASLGELCDLEWQGRLP [SEQ ID NO 2633]
37 | < 100 | WKPCWMAALGELCDLERSVGKV [SEQ ID NO 2630]
38 | < 100 | SKPCWLAQLGDLCDFDWTAADH [SEQ ID NO 2626]
39 | < 100 | WYPCWIAQLGEVCDLEKQTGSV (disulfide 4-13 (inferred)) [SEQ ID NO 2611]
40 | < 100 | WKPCWMARLGELCDIEDTKVNA [SEQ ID NO 2615]
41 | < 100 | WTPCWIAHLGDLCDLEPQDDTD (disulfide 4-13 (inferred)) [SEQ ID NO 2628]
42 | < 100 | WKPCWRAQLGELCDLELGPSER [SEQ ID NO 2631]
43 | < 100 | QKGFLPCWRAQLGQLCDMESQY [SEQ ID NO 2637]
44 | < 100 | YKPCQMAQLGELCDLDVDNKAE [SEQ ID NO 2613]
45 | < 100 | QRNSFPCWLAQLGDLCDLGDWA [SEQ ID NO 2642]
46 | < 100 | WKPCWLAQLGELCDLERPSTTS [SEQ ID NO 2623]

Row | IC50 [µM] | Binder
47 | < 100 | QPAWLPCWLAQLGELCDLGTGA [SEQ ID NO 2643]
48 | < 100 | AVSHGNWLPCYIAQLGELCDLD [SEQ ID NO 2609]
49 | < 100 | WRRWYPCWMAQLGELCDLDQWT (disulfide 7-16 (inferred)) [SEQ ID NO 2639]
50 | < 100 | RLPCWRAQLGDLCELDWGLDMG [SEQ ID NO 2619]
51 | < 100 | GYPCWLAQLGDYCDLDAGAPSW [SEQ ID NO 2621]
52 | < 100 | IDRADGWKPCWIAQVGELCVLE [SEQ ID NO 2607]
53 | < 100 | MGSWLPCWMAQLGDLCDVEGGM [SEQ ID NO 2636]
54 | < 100 | WYPCWMAHLGDVCDLESFGQTE [SEQ ID NO 2612]
55 | < 100 | FKPCWIANLGELCDMDDERSSE [SEQ ID NO 2614]
56 | < 100 | WYSCGKAQLGELCDLDVESQPG [SEQ ID NO 2624]
57 | < 100 | GSGWQPCWMADLGELCDLDNEK [SEQ ID NO 2638]
58 | < 100 | WKPCFIASLGELCDLDQGSVEV [SEQ ID NO 2629]
59 | < 100 | WYPCWMAQLGELCDHEWPSYGA [SEQ ID NO 2635]
60 | < 100 | RRSWYPCRIAQLGELCDLDPRV (disulfide 7-16 (inferred)) [SEQ ID NO 2640]
61 | < 100 | FYPCWKARLGELCELEELRGYY [SEQ ID NO 2617]
62 | < 100 | SLPCWIARLGELCDLDGYDGEE [SEQ ID NO 2616]
63 | < 100 | WFPCWMAQLGDLCELEPDSVPA [SEQ ID NO 2627]
64 | < 100 | SWPCWMAQLGDLCDLDGSAGAS [SEQ ID NO 2622]
